From the RNAGym collection of RNA variant scans (doi:10.7554/elife.90254)

B1: LINE1-full (parent)
chain: UACGUAGGUGGUUUUCCCCUGAUAGUGCUAAGGGGGCCUGGAAGUUUGGACUGGGCAGAGCUCAACACAGCGUGGCAAAGUGGCUGUGGCUAGACUGCCUCUCUGGAUUCCUCGUCACUCAGCAGGGCAUCUCUGAGAGAAAUGCC

Variants of: B1
Assay: self-cleavage, relative activity (ratio to wild type); higher = more cleavage; in vitro, sequencing; the parent is a self-cleaving ribozyme

Row | Variant | self-cleavage
1 | UACGUAGGUGGUUUUCCCCUGAUGGUGCUAAGGGGGCCUGGAAGUUUGGACUGGGCAGAGCUCAACACAGCGUGGCAAAGUGGCUGUGGCUGGACUGCCUCUCUGGAUUCCUCGUCACUCAGCAGGGCAUCUCUGAGAGAAAUGCC | 0.2
2 | UACGUAGGUGGUUUUCCCCUGAUGGUGCUAAGGGGGCCUGGAAGUUUGGACUGGGCAGAGCUCAACACAGCGUGGCAAAGUGGCUGUGGCUAGGCUGCCUCUCUGGAUUCCUCGUCACUCAGCAGGGCAUCUCUGAGAGAAAUGCC | 0.31
3 | UACGUAGGUGGUUUUCCCCUGAUGGUGCUAAGGGGGCCUGGAAGUUUGGACUGGGCAGAGCUCAACACAGCGUGGCAAAGUGGCUGUGGCUAGUCUGCCUCUCUGGAUUCCUCGUCACUCAGCAGGGCAUCUCUGAGAGAAAUGCC | 0.49
4 | UACGUAGGUGGUUUUCCCCUGAUGGUGCUAAGGGGGCCUGGAAGUUUGGACUGGGCAGAGCUCAACACAGCGUGGCAAAGUGGCUGUGGCUAGACUGCCUCUCUGGUUUCCUCGUCACUCAGCAGGGCAUCUCUGAGAGAAAUGCC | 1.05
5 | UACGUAGGUGGUUUUCCCCUGAUGGUGCUAAGGGGGCCUGGAAGUUUGGACUGGGCAGAGCUCAACACAGCGUGGCAAAGUGGCUGUGGCUAGACUGCCUCUCUGGAUUCCUCGUCUCUCAGCAGGGCAUCUCUGAGAGAAAUGCC | 1.09
6 | UACGUAGGUGGUUUUCCCCUGAUGGUGCUAAGGGGGCCUGGAAGUUUGGACUGGGCAGAGCUCAACACAGCGUGGCAAAGUGGCUGUGGCUAGACUGCCUCUCUGGAUUCCUCGUCACUCAGCGGGGCAUCUCUGAGAGAAAUGCC | 1.06
7 | UACGUAGGUGGUUUUCCCCUGAUGGUGCUAAGGGGGCCUGGAAGUUUGGACUGGGCAGAGCUCAACACAGCGUGGCAAAGUGGCUGUGGCUAGACUGCCUCUCUGGAUUCCUCGUCACUCAGCAGGGCCUCUCUGAGAGAAAUGCC | 0.71
8 | UACGUAGGUGGUUUUCCCCUGAUGGUGCUAAGGGGGCCUGGAAGUUUGGACUGGGCAGAGCUCAACACAGCGUGGCAAAGUGGCUGUGGCUAGACUGCCUCUCUGGAUUCCUCGUCACUCAGCAGGGCGUCUCUGAGAGAAAUGCC | 1.19
9 | UACGUAGGUGGUUUUCCCCUGAUGGUGCUAAGGGGGCCUGGAAGUUUGGACUGGGCAGAGCUCAACACAGCGUGGCAAAGUGGCUGUGGCUAGACUGCCUCUCUGGAUUCCUCGUCACUCAGCAGGGCAUCUCUGAGUGAAAUGCC | 1.43
10 | UACGUAGGUGGUUUUCCCCUGAUGGUGCUAAGGGGGCCUGGAAGUUUGGACUGGGCAGAGCUCAACACAGCGUGGCAAAGUGGCUGUGGCUAGACUGCCUCUCUGGAUUCCUCGUCACUCAGCAGGGCAUCUCUGAGAGGAAUGCC | 1.68
11 | UACGUAGGUGGUUUUCCCCUGAUGGUGCUAAGGGGGCCUGGAAGUUUGGACUGGGCAGAGCUCAACACAGCGUGGCAAAGUGGCUGUGGCUAGACUGCCUCUCUGGAUUCCUCGUCACUCAGCAGGGCAUCUCUGAGAGUAAUGCC | 0.9
12 | UACGUAGGUGGUUUUCCCCUGAUGGUGCUAAGGGGGCCUGGAAGUUUGGACUGGGCAGAGCUCAACACAGCGUGGCAAAGUGGCUGUGGCUAGACUGCCUCUCUGGAUUCCUCGUCACUCAGCAGGGCAUCUCUGAGAGAGAUGCC | 1.22
13 | UACGUAGGUGGUUUUCCCCUGAUGGUGCUAAGGGGGACUGGAAGUUUGGACUGGGCAGAGCUCAACACAGCGUGGCAAAGUGGCUGUGGCUAGACUGCCUCUCUGGAUUCCUCGUCACUCAGCAGGGCAUCUCUGAGAGAAAUGCC | 1.07
14 | UACGUAGGUGGUUUUCCCCUGAUGGUGCUAAGGGGGUCUGGAAGUUUGGACUGGGCAGAGCUCAACACAGCGUGGCAAAGUGGCUGUGGCUAGACUGCCUCUCUGGAUUCCUCGUCACUCAGCAGGGCAUCUCUGAGAGAAAUGCC | 0.83
15 | UACGUAGGUGGUUUUCCCCUGAUGGUGCUAAGGGGGCCUGGAAGUUUGGAUUGGGCAGAGCUCAACACAGCGUGGCAAAGUGGCUGUGGCUAGACUGCCUCUCUGGAUUCCUCGUCACUCAGCAGGGCAUCUCUGAGAGAAAUGCC | 1.68
16 | UACGUAGGUGGUUUUCCCCUGAUGGUGCUAAGGGGGCCUGGAAGUUUGGACUGGGCAGAGCUAAACACAGCGUGGCAAAGUGGCUGUGGCUAGACUGCCUCUCUGGAUUCCUCGUCACUCAGCAGGGCAUCUCUGAGAGAAAUGCC | 0
17 | UACGUAGGUGGUUUUCCCCUGAUGGUGCUAAGGGGGCCUGGAAGUUUGGACUGGGCAGAGCUCAACACAGUGUGGCAAAGUGGCUGUGGCUAGACUGCCUCUCUGGAUUCCUCGUCACUCAGCAGGGCAUCUCUGAGAGAAAUGCC | 1.03
18 | UACGUAGGUGGUUUUCCCCUGAUGGUGCUAAGGGGGCCUGGAAGUUUGGACUGGGCAGAGCUCAACACAGCGUGGCAAAGUGGCUGUGGCUAGACUGACUCUCUGGAUUCCUCGUCACUCAGCAGGGCAUCUCUGAGAGAAAUGCC | 0.13
19 | UACGUAGGUGGUUUUCCCCUGAUGGUGCUAAGGGGGCCUGGAAGUUUGGACUGGGCAGAGCUCAACACAGCGUGGCAAAGUGGCUGUGGCUAGACUGCCUCUCUGGAUUCAUCGUCACUCAGCAGGGCAUCUCUGAGAGAAAUGCC | 1.74
